# From IntAct's records for PubMed 16365431
# B1: Inhibitor of nuclear factor kappa-B kinase subunit beta (Homo sapiens), O14920 (parent)
# chain: MSWSPSLTTQTCGAWEMKERLGTGGFGNVIRWHNQETGEQIAIKQCRQELSPRNRERWCLEIQIMRRLTHPNVVAARDVPEGMQNLAPNDLPLLAMEYCQGGDLRKYLNQFENCCGLREGAILTLLSDIASALRYLHENRIIHRDLKPENIVLQQGEQRLIHKIIDLGYAKELDQGSLCTSFVGTLQYLAPELLEQQKYTVTVDYWSFGTLAFECITGFRPFLPNWQPVQWHSKVRQKSEVDIVVSEDLNGTVKFSSSLPYPNNLNSVLAERLEKWLQLMLMWHPRQRGTDPTYGPNGCFKALDDILNLKLVHILNMVTGTIHTYPVTEDESLQSLKARIQQDTGIPEEDQELLQEAGLALIPDKPATQCISDGKLNEGHTLDMDLVFLFDNSKITYETQISPRPQPESVSCILQEPKRNLAFFQLRKVWGQVWHSIQTLKEDCNRLQQGQRAAMMNLLRNNSCLSKMKNSMASMSQQLKAKLDFFKTSIQIDLEKYSEQTEFGITSDKLLLAWREMEQAVELCGRENEVKLLVERMMALQTDIVDLQRSPMGRKQGGTLDDLEEQARELYRRLREKPRDQRTEGDSQEMVRLLLQAIQSFEKKVRVIYTQLSKTVVCKQKALELLPKVEEVVSLMNEDEKTVVRLQEKRQKELWNLLKIACSKVRGPVSGSPDSMNASRLSQPGQLMSQPSTASNSLPEPAKKSEELVAEAHNLCTLLENAIQDTVREQDQSFTALDWSWLQTEEEEHSCLEQAS
# Variants of: B1
# Settings: with ikba_human NFKBIA
row,Variant,effect of a mutation on the interaction
1,K44M,disrupting interaction
